Experimental data: article PMC2175290 (The Journal of Cell Biology, 2000)

T1: Mex67pΔC1/His6-Mtr2p complex (S. cerevisiae | yeast, UniProt Q99257;P34232)
T1 sequence 1: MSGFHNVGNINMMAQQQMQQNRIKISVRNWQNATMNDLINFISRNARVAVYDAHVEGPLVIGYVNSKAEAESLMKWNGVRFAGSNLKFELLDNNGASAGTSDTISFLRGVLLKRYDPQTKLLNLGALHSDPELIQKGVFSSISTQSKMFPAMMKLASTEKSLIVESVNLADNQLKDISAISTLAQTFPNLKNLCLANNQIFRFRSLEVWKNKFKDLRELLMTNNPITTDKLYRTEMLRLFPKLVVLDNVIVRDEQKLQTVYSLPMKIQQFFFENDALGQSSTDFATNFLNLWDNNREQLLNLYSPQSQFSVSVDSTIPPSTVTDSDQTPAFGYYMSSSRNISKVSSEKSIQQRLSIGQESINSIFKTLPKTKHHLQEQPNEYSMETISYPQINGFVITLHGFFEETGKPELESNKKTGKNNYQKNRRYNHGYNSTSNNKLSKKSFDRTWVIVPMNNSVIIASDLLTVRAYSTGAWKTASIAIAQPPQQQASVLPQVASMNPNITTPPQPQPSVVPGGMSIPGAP
T1 sequence 2: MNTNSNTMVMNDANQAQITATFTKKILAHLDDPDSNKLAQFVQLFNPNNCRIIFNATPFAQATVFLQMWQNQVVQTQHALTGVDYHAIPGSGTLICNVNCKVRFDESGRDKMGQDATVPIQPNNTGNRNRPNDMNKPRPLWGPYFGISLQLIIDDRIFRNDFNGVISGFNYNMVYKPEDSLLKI

T2: Mex67p/His6-Mtr2p complex (S. cerevisiae | yeast, UniProt Q99257;P34232)
T2 sequence 1: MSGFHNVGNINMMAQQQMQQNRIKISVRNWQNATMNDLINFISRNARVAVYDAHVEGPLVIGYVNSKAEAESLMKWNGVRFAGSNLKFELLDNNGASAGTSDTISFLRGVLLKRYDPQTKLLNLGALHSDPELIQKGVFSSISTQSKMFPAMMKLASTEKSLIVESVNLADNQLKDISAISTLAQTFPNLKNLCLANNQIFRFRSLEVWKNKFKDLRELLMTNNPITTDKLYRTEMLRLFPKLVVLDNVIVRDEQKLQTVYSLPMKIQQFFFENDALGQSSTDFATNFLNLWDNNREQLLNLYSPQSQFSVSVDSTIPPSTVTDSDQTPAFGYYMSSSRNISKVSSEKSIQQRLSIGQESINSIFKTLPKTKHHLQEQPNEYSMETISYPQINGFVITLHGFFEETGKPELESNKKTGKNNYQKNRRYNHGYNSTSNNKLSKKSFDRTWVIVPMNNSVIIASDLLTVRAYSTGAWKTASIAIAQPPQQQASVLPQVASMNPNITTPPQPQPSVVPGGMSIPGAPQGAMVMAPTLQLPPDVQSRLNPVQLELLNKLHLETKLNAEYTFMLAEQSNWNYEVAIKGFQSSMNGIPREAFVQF
T2 sequence 2: T1 sequence 2

B1: untagged full-length Mex67p (natural protein)
chain: T2 sequence 1
B2: His6-Mtr2p (natural protein)
chain: T1 sequence 2
B3: GST-GLFG_(Nup116) (domain or fragment)
chain: YQAGRKFGTSQNGTGTTFNNPQGTTNTGFGIMGNNNSTTSATTGGLFGQKPATGMFGTGTGSGGGFGSGATNSTGLFGSSTNLSGNSAFGANKPATSGGLFGNTTNNPTNGTNNTGLFGQQNSNTNGGLFGQQQNSFGANNVSNGGAFGQVNRGAFPQQQTQQGSGGIFGQSNANANGGAFGQQQGTGALFGAKPASGGLFGQSAGSKAFGMNTNPTGTTGGLFGQTNQQQSGGGLFGQQQNSNAGGLFGQNNQSQNQSGLFGQQNSSNAFGQPQQQGGLFGSKPAGGLFGQQQGASTFASGNAQNNSIFGQNNQQQQSTGGLFGQQNNQSQSQPGGLFGQTNQNNNQPFGQNGLQQPQQNNSLFGAKPTGFGNTSLFSNSTTNQSNGISGNNLQQQSGGLFQNKQQPASGGLFGSKPSNTVGGGLFGNNQVANQNNPASTSGGLFGSKPATGSLFGGTNSTAPNASSGGIFGSNNASNTAATTNSTGLFGNKPVGAGASTSAGGLFGNNNNSSLNNSNGSTGLFGSNNTSQSTNAGGLFQNNTSTNTSGGGLFSQPSQSMAQSQNALQQ
B4: GST-FG_(Nup159) (domain or fragment)
chain: QSQSSSTFGAPSFGSSAFKIDLPSVSSTSTGVASSEQDATDPASAKPVFGKPAFGAIAKEPSTSEYAFGKPSFGAPSFGSGKSSVESPASGSAFGKPSFGTPSFGSGNSSVEPPASGSAFGKPSFGTPSFGSGNSSAEPPASGSAFGKPSFGTSAFGTASSNETNSGSIFGKAAFGSSSFAPANNELFGSNFTISKPTVDSPKEVDSTSPFPSSGDQSEDESKSDVDSSSTPFGTKPNTSTKPKTNAFDFGSSSFGSGFSKALESVGSDTTFKFGTQASPFSSQLGNKSPFSSFTKDDTENGSLSKGSTSEINDDNEEHESNGPNVSGNDLTDSTVEQTSSTRLPETPSDEDGEVVEEEAQKSPIGKLTETIKKSANIDMAGLKNPVFGNHVKAKSESPFSAFATNITKPSSTTPAFSFGNSTMNKSNTSTVSPMEEADTKETS

Key:
[1] = target: B2; experiment: AUC
[2] = target: B1; experiment: pull-down
[3] = target: T1, Mex67pΔC1/His6-Mtr2p complex; experiment: pull-down
[4] = target: T2, Mex67p/His6-Mtr2p complex; experiment: pull-down

| Binder | stoichiometry N [1] | binding result [2] | binding result [3] | binding result [4] |
| --- | --- | --- | --- | --- |
| B1 | 1 | – | – | – |
| B2 | – | binds | – | – |
| B3 | – | – | binds | binds |
| B4 | – | – | binds | binds |
